Results published in the supplement of paper PMC10126150.
± gives the standard deviation of the averaged measurements.

Test system: ATP
Test: switch fluorescence ratio, 500 uM ATP over buffer (Cy3 cluster intensity, sum of 5 cycles each) (fold (ratio)); higher = stronger signal-on switching upon ATP binding; sequences stand for … in TCGTCGGCAGCGTCAGATGTGTATAAGAGACAGTTTTTTTTTTTTTTTTTTTTTTTTT…TC
Settings: aptamer strand: ATP DNA aptamer (quencher-CACCTGGGGGAGTATTGCGGAGGAAGG + anchor), 100 nM annealed; ATP concentration: 500 uM
Procedure, shortened: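 Switching-strand clusters labelled with Cy3 on a modified Illumina MiSeq flow-cell were annealed to 100 nM quencher-labelled ATP aptamer, imaged in selection buffer, and re-imaged after 15 min with 500 uM ATP at 22 °C. This was done over five cycles with NaOH stripping and re-annealing in between. The fluorescence ratio is summed target-cycle over summed buffer-cycle Cy3 intensity per cluster, averaged per switch-domain sequence, excluding clusters outside 100-1000 RFU.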
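Further: ATP exposure 15 min at 22 °C before imaging.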

## TTTAGCTGAA
  switch fluorescence ratio: 0.962 ± 0.024

## TTTAGGAAAG
  switch fluorescence ratio: 1.05 ± 0.063

## TTTAGGAAGG
  switch fluorescence ratio: 1.017 ± 0.01

## TTTAGGACGT
  switch fluorescence ratio: 0.999 ± 0.059

## TTTAGGAGTT
  switch fluorescence ratio: 0.996 ± 0.019

## TTTAGGCTGC
  switch fluorescence ratio: 1.01 ± 0.021

## TTTAGGGAGC
  switch fluorescence ratio: 1.04 ± 0.029

## TTTAGGGTAA
  switch fluorescence ratio: 1 ± 0.03

## TTTAGGGTCG
  switch fluorescence ratio: 1.007 ± 0.0016

## TTTAGGTAAT
  switch fluorescence ratio: 1.016 ± 0.0074

## TTTAGGTAT
  switch fluorescence ratio: 1 ± 0.023

## TTTAGGTCTA
  switch fluorescence ratio: 0.978 ± 0.019

## TTTAGGTTCA
  switch fluorescence ratio: 0.98 ± 0.041

## TTTAGGTTCT
  switch fluorescence ratio: 1.01 ± 0.026

## TTTAGGTTTG
  switch fluorescence ratio: 1 ± 0.066

## TTTAGTAATA
  switch fluorescence ratio: 1.03 ± 0.021

## TTTAGTACGC
  switch fluorescence ratio: 1.05 ± 0.0076

## TTTAGTAGCT
  switch fluorescence ratio: 1 ± 0.032

## TTTAGTAGGT
  switch fluorescence ratio: 1.03 ± 0.023

## TTTAGTAGTT
  switch fluorescence ratio: 1.01 ± 0.017

## TTTAGTCATG
  switch fluorescence ratio: 0.977 ± 0.035

## TTTAGTCGCG
  switch fluorescence ratio: 0.967 ± 0.039

## TTTAGTGGTT
  switch fluorescence ratio: 1.02 ± 0.044

## TTTAGTGTAT
  switch fluorescence ratio: 0.991 ± 0.04

## TTTAGTTCTG
  switch fluorescence ratio: 0.9788 ± 0.0094

## TTTAGTTGTG
  switch fluorescence ratio: 0.967 ± 0.014

## TTTATAAAGG
  switch fluorescence ratio: 1.01 ± 0.034

## TTTATAATCA
  switch fluorescence ratio: 0.967 ± 0.011

## TTTATACCAA
  switch fluorescence ratio: 1.038 ± 0.0089

## TTTATACGGC
  switch fluorescence ratio: 1.03 ± 0.014

## TTTATAGGGG
  switch fluorescence ratio: 1.08 ± 0.14

## TTTATATTAG
  switch fluorescence ratio: 0.9889 ± 0.0075

## TTTATCTAGG
  switch fluorescence ratio: 1.02 ± 0.017

## TTTATGAATG
  switch fluorescence ratio: 0.9853 ± 0.0042

## TTTATGACGT
  switch fluorescence ratio: 1 ± 0.023

## TTTATGAGCC
  switch fluorescence ratio: 1.01 ± 0.062

## TTTATGAGCG
  switch fluorescence ratio: 0.973 ± 0.028

## TTTATGAGGG
  switch fluorescence ratio: 1.02 ± 0.047

## TTTATGCCAT
  switch fluorescence ratio: 0.989 ± 0.012

## TTTATGGATC
  switch fluorescence ratio: 1.01 ± 0.05

## TTTATGGCCT
  switch fluorescence ratio: 1.02 ± 0.052

## TTTATGGCTG
  switch fluorescence ratio: 0.987 ± 0.076

## TTTATGGGG
  switch fluorescence ratio: 0.965 ± 0.08

## TTTATGTAAA
  switch fluorescence ratio: 0.9849 ± 0.0081

## TTTATGTCTC
  switch fluorescence ratio: 0.992 ± 0.029

## TTTATGTTCG
  switch fluorescence ratio: 0.99 ± 0.02

## TTTATGTTT
  switch fluorescence ratio: 0.984 ± 0.019

## TTTATTATTT
  switch fluorescence ratio: 0.989 ± 0.024

## TTTATTCCGG
  switch fluorescence ratio: 1 ± 0.01

## TTTATTCTGT
  switch fluorescence ratio: 1 ± 0.022

## TTTATTCTTA
  switch fluorescence ratio: 0.9807 ± 0.0081

## TTTATTGCTA
  switch fluorescence ratio: 1.01 ± 0.034

## TTTATTTGCC
  switch fluorescence ratio: 1.05 ± 0.042

## TTTATTTGG
  switch fluorescence ratio: 1.09 ± 0.12

## TTTATTTTTG
  switch fluorescence ratio: 0.992 ± 0.029

## TTTCAAAAGT
  switch fluorescence ratio: 1.006 ± 0.006

## TTTCAACATA
  switch fluorescence ratio: 0.9987 ± 0.0035

## TTTCACAAGG
  switch fluorescence ratio: 0.9836 ± 0.0089

## TTTCACCCCT
  switch fluorescence ratio: 1.09 ± 0.067

## TTTCACGAAT
  switch fluorescence ratio: 0.993 ± 0.015

## TTTCACGCGC
  switch fluorescence ratio: 1.03 ± 0.016

## TTTCAGGATG
  switch fluorescence ratio: 0.963 ± 0.017

## TTTCAGGGGA
  switch fluorescence ratio: 1.19 ± 0.32

## TTTCAGGTTT
  switch fluorescence ratio: 0.983 ± 0.033

## TTTCAGTCGG
  switch fluorescence ratio: 1.006 ± 0.0037

## TTTCAGTGCA
  switch fluorescence ratio: 1.02 ± 0.029

## TTTCATAAGT
  switch fluorescence ratio: 0.999 ± 0.025

## TTTCATACTC
  switch fluorescence ratio: 1.29 ± 0.21

## TTTCATTTTA
  switch fluorescence ratio: 0.9881 ± 0.0064

## TTTCATTTTG
  switch fluorescence ratio: 1.03 ± 0.017

## TTTCCCGACG
  switch fluorescence ratio: 1.12 ± 0.11

## TTTCCCGGGC
  switch fluorescence ratio: 1.01 ± 0.056

## TTTCCGAGGA
  switch fluorescence ratio: 1.03 ± 0.069

## TTTCCGCAGG
  switch fluorescence ratio: 1.24 ± 0.17

## TTTCCGCTTA
  switch fluorescence ratio: 3.67 ± 1.7

## TTTCCGGCGT
  switch fluorescence ratio: 1.03 ± 0.023

## TTTCCGGGAC
  switch fluorescence ratio: 1.41 ± 0.066

## TTTCCTCAG
  switch fluorescence ratio: 1.3 ± 0.4

## TTTCCTTGTG
  switch fluorescence ratio: 1.36 ± 0.53

## TTTCCTTTTG
  switch fluorescence ratio: 1.01 ± 0.054

## TTTCGACACG
  switch fluorescence ratio: 0.989 ± 0.018

## TTTCGAGCTT
  switch fluorescence ratio: 1.01 ± 0.022

## TTTCGAGTGC
  switch fluorescence ratio: 0.97892 ± 0.00082

## TTTCGAGTTA
  switch fluorescence ratio: 1.03 ± 0.063

## TTTCGAGTTG
  switch fluorescence ratio: 0.9809 ± 0.0029

## TTTCGATGGG
  switch fluorescence ratio: 0.978 ± 0.015

## TTTCGGAAAA
  switch fluorescence ratio: 1.24 ± 0.41

## TTTCGGACCT
  switch fluorescence ratio: 1.3458 ± 0.00061

## TTTCGGCACT
  switch fluorescence ratio: 1.01 ± 0.05

## TTTCGGCCAA
  switch fluorescence ratio: 1.62 ± 0.76

## TTTCGGCGGG
  switch fluorescence ratio: 1 ± 0.013

## TTTCGGGAGC
  switch fluorescence ratio: 0.977 ± 0.049

## TTTCGGGAGT
  switch fluorescence ratio: 0.976 ± 0.016

## TTTCGGGCCA
  switch fluorescence ratio: 1.12 ± 0.039

## TTTCGGGCTG
  switch fluorescence ratio: 0.984 ± 0.015

## TTTCGGGGAC
  switch fluorescence ratio: 1.43 ± 0.62

## TTTCGGGGCT
  switch fluorescence ratio: 1 ± 0.052

## TTTCGGGGGC
  switch fluorescence ratio: 0.993 ± 0.028

## TTTCGGTCAT
  switch fluorescence ratio: 1.02 ± 0.029

## TTTCGGTTCC
  switch fluorescence ratio: 1.05 ± 0.051

## TTTCGTAAAA
  switch fluorescence ratio: 1.002 ± 0.0057

## TTTCGTATTC
  switch fluorescence ratio: 1 ± 0.015

## TTTCGTCCAA
  switch fluorescence ratio: 1.04 ± 0.026

## TTTCGTGGGT
  switch fluorescence ratio: 0.9863 ± 0.006

## TTTCGTGGTT
  switch fluorescence ratio: 0.937 ± 0.021

## TTTCGTTTGC
  switch fluorescence ratio: 0.998 ± 0.046

## TTTCTAAGAA
  switch fluorescence ratio: 1.01 ± 0.013

## TTTCTAATGG
  switch fluorescence ratio: 1.02 ± 0.026

## TTTCTAGGGT
  switch fluorescence ratio: 0.994 ± 0.017

## TTTCTCAAAA
  switch fluorescence ratio: 1.03 ± 0.024

## TTTCTCGG
  switch fluorescence ratio: 1.07 ± 0.093

## TTTCTCTGTT
  switch fluorescence ratio: 1.02 ± 0.011

## TTTCTGGAAT
  switch fluorescence ratio: 0.991 ± 0.0019

## TTTCTGGCCG
  switch fluorescence ratio: 0.907 ± 0.046

## TTTCTGGGGC
  switch fluorescence ratio: 1.08 ± 0.08

## TTTCTGGGTT
  switch fluorescence ratio: 1.01 ± 0.023

## TTTCTGTCGG
  switch fluorescence ratio: 1.02 ± 0.032

## TTTCTGTTGC
  switch fluorescence ratio: 0.9887 ± 0.0047

## TTTCTGTTGG
  switch fluorescence ratio: 0.992 ± 0.035

## TTTCTTCGGG
  switch fluorescence ratio: 1 ± 0.019

## TTTCTTGCAC
  switch fluorescence ratio: 1.067 ± 0.0095

## TTTCTTGCCA
  switch fluorescence ratio: 1.02 ± 0.048

## TTTCTTGGCT
  switch fluorescence ratio: 1.2 ± 0.38

## TTTCTTTCGG
  switch fluorescence ratio: 1.03 ± 0.048

## TTTCTTTT
  switch fluorescence ratio: 1.042 ± 0.0027

## TTTCTTTTAT
  switch fluorescence ratio: 0.998 ± 0.016

## TTTCTTTTCT
  switch fluorescence ratio: 1.02 ± 0.032

## TTTCTTTTTA
  switch fluorescence ratio: 0.9791 ± 0.0032

## TTTGAAAAGC
  switch fluorescence ratio: 0.986 ± 0.018

## TTTGAACGGG
  switch fluorescence ratio: 1.01 ± 0.036

## TTTGAAGCAT
  switch fluorescence ratio: 1 ± 0.061

## TTTGAAGGG
  switch fluorescence ratio: 0.965 ± 0.012

## TTTGAAGTCT
  switch fluorescence ratio: 0.978 ± 0.09

## TTTGAAGTTG
  switch fluorescence ratio: 0.992 ± 0.029

## TTTGAATAGA
  switch fluorescence ratio: 0.992 ± 0.019

## TTTGACAAAC
  switch fluorescence ratio: 1.1 ± 0.073

## TTTGACCTGT
  switch fluorescence ratio: 0.991 ± 0.013

## TTTGACGACA
  switch fluorescence ratio: 1.11 ± 0.1

## TTTGACGTTG
  switch fluorescence ratio: 1.02 ± 0.047

## TTTGAGAAGG
  switch fluorescence ratio: 0.948 ± 0.022

## TTTGAGACGG
  switch fluorescence ratio: 0.99 ± 0.019

## TTTGAGCTTG
  switch fluorescence ratio: 0.981 ± 0.017

## TTTGAGCTTT
  switch fluorescence ratio: 1.02 ± 0.018

## TTTGAGGGA
  switch fluorescence ratio: 0.9945 ± 0.0052

## TTTGAGGGGT
  switch fluorescence ratio: 1.03 ± 0.065

## TTTGAGTAGG
  switch fluorescence ratio: 0.992 ± 0.038

## TTTGAGTATA
  switch fluorescence ratio: 0.992 ± 0.031

## TTTGAGTGTA
  switch fluorescence ratio: 0.969 ± 0.05

## TTTGATAACG
  switch fluorescence ratio: 0.987 ± 0.012

## TTTGATAAGT
  switch fluorescence ratio: 1.06 ± 0.07

## TTTGATACCT
  switch fluorescence ratio: 1.266 ± 0.0022

## TTTGATACGC
  switch fluorescence ratio: 1.04 ± 0.031

## TTTGATAGAT
  switch fluorescence ratio: 0.977 ± 0.012

## TTTGATCAGC
  switch fluorescence ratio: 0.983 ± 0.031

## TTTGATCGCA
  switch fluorescence ratio: 0.999 ± 0.025

## TTTGATGGGC
  switch fluorescence ratio: 0.9911 ± 0.0075

## TTTGATGTAG
  switch fluorescence ratio: 1.01 ± 0.011
